The supplement of paper PMC9170038

Tested on: MS2 coat protein
Test: apparent KD of MS2 coat protein; designed switch direction (-1 OFF switch, 1 ON switch): -1; higher = weaker reporter binding
In short: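 SNAP-549-labelled MS2 coat protein was titrated, doubling from 0.7 or 1.5 nM to 3 µM, over designed RNA switches transcribed on Illumina chips by stalled E. coli RNA polymerase. Runs were done without input, with 200 uM small-molecule ligand, or with an oligonucleotide input. Apparent KD is the per-design median over clusters of curve-fitted normalised fluorescence.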

[1] = input ligand: microRNA oligo, concentration not stated
[2] = Eterna round: R95, input ligand: microRNA oligo, concentration not stated
[3] = Eterna round: R95, input ligand: FMN 200 uM
[4] = Eterna round: R95, input ligand: none

Row | Sequence | apparent KD of MS2 coat protein (input ligand: FMN 200 uM) | apparent KD of MS2 coat protein (input ligand: none) | apparent KD of MS2 coat protein [2] | also measured
1 | GGCCUUCCACGAGCUUUUUACAUGAGGAUCACCCAUGUGGUUUUUAGUCUUAUCCCGGGCCCGCUGUCGGGCCCGGG [-32.2, -52.8, A 13%] (Eterna round: R97, puzzle: Sensor, turn-off variant 1) | 29.1 nM | 33 nM | – | –
2 | CAGUACUGAGGAUAUACAUGAGGAUCACCCAUGUGUCCUAGCUAGGAAACUAGCAUUAGUAGAAGGCAGUACUG [Fiskers Ex 3 828 mod 6] (Eterna round: R96, puzzle: Exclusion 3) | 225 nM | 19.5 nM | – | apparent KD of MS2 coat protein [1]: 16.9 nM
3 | GCAUUUGAGCAGGAUAUAGCCUGAACAUAAUGGUUAGAAGGGCUCACAUGAGGAUCACCCAUGUGGUGUCCUAA [Rateria] (puzzle: Exclusion 6) | – | – | 11.6 nM | –
4 | UGAUCACAUGAGGAUCACCCAUGUCAGGAUAUCGUCACUGGAGCUUCGGCUCCAGUGACGAGAAGGGACAUAAU [E1/3-A1] (Eterna round: R97, puzzle: Exclusion 1) | 77.4 nM | 141 nM | – | –
5 | CCGCCACAUGAGGAUCACCCAUGUCAGGAUAUCUAUCAUAGCAUCGAAAGAUGCGGGUAGAGAAGGGACUAUCC [ChP Ext 10-04-2015 #6] (puzzle: Exclusion 1) | – | – | 28.1 nM | –
6 | CACCGUUAACUAGGAUAUCGUACAUGAGGAUCACCCAUGUAAUAAAUGAGAAUUUCGGAUGUAUGCGAGAAGGAGUAAAUCGGC [Ostricism 46 - Jieux - Exclusion NG 2] (Eterna round: R96, puzzle: Exclusion NG 2) | 40.8 nM | 37.3 nM | – | apparent KD of MS2 coat protein [1]: 27.6 nM
7 | GAUCGACAUGAGGAUCACCCAUGUCAGGAUAUCUACAUUGAAGCUUCGGCUUCAAUGUAGAGAAGGGACAUAAU [E1/13-B1] (Eterna round: R97, puzzle: Exclusion 1) | 38.6 nM | 39.7 nM | – | –
8 | UGCCGUAGAGGAUAUACAUUGAAUAAGAUUCAUGUAGAACUACAUGAGGAUCACCCAUGUAGAAGGCUAUGGCU [JL-ex2-4.38 Eli mod] (Eterna round: R97, puzzle: Exclusion 2) | 29.5 nM | 16.9 nM | – | –
9 | CAUUAUGUUGAGGAUAUGCGCCGGCUCGCUGGCGCAGAAGGCGACACAUGAGGAUCACCCAUGUCAGUUCGCGA [salish99_ex6_r004_418] (Eterna round: R97, puzzle: Exclusion 6) | 13.3 nM | 8.87 nM | – | –
10 | UACCGGCGGACCGAAGCUUUUUGCUCGUCUUAUACUACAACAUGAGGAUCACCCAUGUGGUGGUGGUCCGUUGUAGU [JL ViennaUCT Bitein mod 4] (puzzle: Sensor v3, turn-off variant 2) | – | – | 15.7 nM | apparent KD of MS2 coat protein [3]: 20.2 nM; apparent KD of MS2 coat protein [4]: 13.5 nM
11 | AUGUUGCGAGGAUAUAUUUACUUGUUGUUAUUUGGUUGGGAACAUGAGGAUCACCCAUGUAGAAGGUGCAUAAC [JR_Ex2_Sub035] (Eterna round: R97, puzzle: Exclusion 2) | 58.9 nM | 62.5 nM | – | –
12 | ACAUGUAUUGCAGGAUAUGGGACACAUGAGGAUCACCCAUGUGACUACAUGUCAUACCAAGCGUCUCAGAAGGGUAUGUACAUG [Ex NG2 #38] (Eterna round: R96, puzzle: Exclusion NG 2) | 21.3 nM | 18.5 nM | – | apparent KD of MS2 coat protein [1]: 15.8 nM
13 | CUCAAGUGAGGAUAUAUACUUCCAUCAUUUGAGAUAGAAGUAUAGAAGGCACAUGAGGAUCACCCAUGUAUAAC [Lamaanan] (puzzle: Exclusion 4) | – | – | 99.2 nM | –
14 | ACAAGCUUUUUGUUCGUCUUAUAAUAAUAAAUAAAGAUAACAUGAGGAUCACCCAUGUAACAAAGACGGCCUCAUGU [Sesor Array 19 - Jieux - Sensor v3, turn-off variant 2] (puzzle: Sensor v3, turn-off variant 2) | – | – | 11.7 nM | apparent KD of MS2 coat protein [3]: 166 nM; apparent KD of MS2 coat protein [4]: 112 nM
15 | CUUUAGUGAGGAUAUUAGUAGUAAUACAAUAGUAUUACUACUGAGAAGGCACAUGAGGAUCACCCAUGUUCCUC [Mat - Exclusion 4 - Mod of Omei - D79] (puzzle: Exclusion 4) | – | – | 28 nM | –
16 | CAUUGUUAUCGAGGAUAUCGUAUUGAGAUACUACGAGAAGGCGGAAUAAACAUGAGGAUCACCCAUGUGAGACGGAUGCUUGUG [Ex NG1 #34] (Eterna round: R96, puzzle: Exclusion NG 1) | 34.1 nM | 28.3 nM | – | apparent KD of MS2 coat protein [1]: 16 nM
17 | AUCGUGCAGCUUUGCUGUACGAGUACAUGAGGAUCACCCAUGUAGGAUAUGGUACGCUUUGCGUGCUAGAAGGAUAUGCGUUUG [EX ENG3 1.45] (Eterna round: R96, puzzle: Exclusion NG 3) | 46.7 nM | 41.3 nM | – | apparent KD of MS2 coat protein [1]: 40 nM
18 | CGUAGACAUGAGGAUCACCCAUGUGAGGAUAUGCUUUUUUAUUAGAAAUGGUGGAGGAGCAGAAGGCACGUGCG [-21.6, -21.5 kcal, 28% A] (Eterna round: R97, puzzle: Exclusion 1) | 160 nM | 59.7 nM | – | –

Row | Sequence | apparent KD of MS2 coat protein (input ligand: FMN 200 uM) | apparent KD of MS2 coat protein (input ligand: none) | apparent KD of MS2 coat protein [2] | also measured
19 | AUUUUGUCAGGAUAUGACUAGUAGCACGAAAGUGCUACUACUUAGAAGGGACAUGAGGAUCACCCAUGUAUUCC [Bring Us a Shrubbery-10] (puzzle: Exclusion 4) | – | – | 15.1 nM | –
20 | CUAGUCCGAGGAUAUAUUAAGUGAAACAUGAGGAUCACCCAUGUUAUUUAAUGGAAAUAAAUAGAAGGCGGACUAG [Mat - Exclusion 5 - JL mod - D56] (puzzle: Exclusion 5) | – | – | 34.6 nM | apparent KD of MS2 coat protein [3]: 27.2 nM; apparent KD of MS2 coat protein [4]: 51.6 nM
21 | AGGUGCUUCUGGAGACAUGAGGAUCACCCAUGUUGAGUUAGCGAGGAUAUCGGUAAUGCAUGUGAUGAGAAGGCGCAAACCGAU [Ex NG3 #48] (Eterna round: R96, puzzle: Exclusion NG 3) | 36.8 nM | 46.1 nM | – | apparent KD of MS2 coat protein [1]: 40.3 nM
22 | UACAUGAGGAUCACCCAUGUUUUGUCGUGUAUGGUAUUUAUCUAGGAUAUCAUUUUAUUUAGGUAUGAGAAGGAGAAUAUUAAU [JMF's solution 93] (Eterna round: R96, puzzle: Exclusion NG 3) | – | – | – | apparent KD of MS2 coat protein [1]: 23.9 nM
23 | CCUCAUAUUUAGGAUAUGAUUGGUAAUUAUUAGUUAGAAGGAGAUACAUGAGGAUCACCCAUGUAAUAUUUAAA [-11.7, -11.3 kcal, 36% A] (Eterna round: R97, puzzle: Exclusion 6) | 20.3 nM | 19.5 nM | – | –
24 | GCGUACUGAGGAUAUACAUGAGGAUCACCCAUGUAACACAGCAUAUGUGAAGUUUUUUGUAGAAGGCAGUAUGC [JR_Ex3_Sub056] (Eterna round: R97, puzzle: Exclusion 3) | 180 nM | 28.7 nM | – | –
25 | UCCUCACAUGAGGAUCACCCAUGUCAGGAUAUCCAACAUGCUCCCAAAACCACGCAUCGGAGAAGGGACAUGCA [EX1 A.6] (Eterna round: R97, puzzle: Exclusion 1) | 21.7 nM | 17.7 nM | – | –
26 | GUAAUGUCAGGAUAUACUAAUGAUGAAUGAUCAGACAUUAUGUAGAAGGGACAUGAGGAUCACCCAUGUAAUAU [EX4 #4] (Eterna round: R97, puzzle: Exclusion 4) | 49.3 nM | 28.4 nM | – | –
27 | ACAUGAGGAUCACCCAUGUCUGGCUGGUCUGUUCCGGCUGUCGAGGAUAUAGUCCGGUGUUCGCGCUAGAAGGUGAGGGCUGGA [Aenatbe mod 44] (Eterna round: R96, puzzle: Exclusion NG 3) | 153 nM | 87.4 nM | – | apparent KD of MS2 coat protein [1]: 68.6 nM
28 | AGUACUAUGCGAGCUGACUUGCGUAGUGCAGCAGGUGUUACAUGAGGAUCACCCAUGUCCUCAUUUGCUCGUCUUAA [Mat - Sensor v3 - Turn-off var 2 - D7] (puzzle: Sensor v3, turn-off variant 2) | – | – | 91.8 nM | apparent KD of MS2 coat protein [3]: 267 nM; apparent KD of MS2 coat protein [4]: 293 nM
29 | AAAGACCUGGAGGAUAUCAGACACACCAGCGUCUGAGAAGGCCAGACAUGAGGAUCACCCAUGUAGGGUUCUCC [EX6 B.22] (Eterna round: R97, puzzle: Exclusion 6) | 104 nM | 29.4 nM | – | –
30 | CGGAUGUGAGGAUAUACAUGAGGAUCACCCAUGUGUGCCAGCUAGCUGACUGGCACUUGUAGAAGGCACGUCUG [JL-ex3-2.14 Brourd mod] (puzzle: Exclusion 3) | – | – | 11.1 nM | –
31 | GAAUAGAGAGGAUAUGCGAAGUAGGUAGUAAGAUAUAUCUGACAUGAGGAUCACCCAUGUAGAAGGCUCAGAUC [EX2 #4] (Eterna round: R97, puzzle: Exclusion 2) | 34.8 nM | 35.2 nM | – | –
32 | GUUUUCAGACGGAGAUCCUACAUGAGGAUCACCCAUGUCUCUCUUGUUCCUUGCUCGUCUUUUCCUCCUCUGUUCUC [Elimod 33 - Jieux - Sensor, turn-off variant 1] (Eterna round: R97, puzzle: Sensor, turn-off variant 1) | 657 nM | 847 nM | – | –
33 | CCGGCAUAGGAGGAUAUAGGAGUCGAUAGACACCUAGAAGGCCUGACAUGAGGAUCACCCAUGUGUCCUACCGG [Fiskers Ex 6 - 97] (puzzle: Exclusion 6) | – | – | 12.5 nM | –
34 | UUUUAACAUGAGGAUCACCCAUGUGAGGAUAUCGAAAUUUAUAUUAAUAUUAUUUAUACGAGAAGGCACAUUUU [JMF 46] (puzzle: Exclusion 1) | – | – | 64.9 nM | –
35 | AUUAAAACAUAGGAUAUCGAAAUUAUUAUUUAACGAGAAGGAUGAACAUGAGGAUCACCCAUGUGGUAUCAUGG [Mat - Exclusion 6 - JL Mod - D28] (puzzle: Exclusion 6) | – | – | 367 nM | apparent KD of MS2 coat protein [3]: 307 nM; apparent KD of MS2 coat protein [4]: 610 nM
